In one series the target is T1, RrXyl43A (Rhizophlyctis rosea, UniProt A0A2U8LMQ1).
T1 construct: full-length 325 residues, no native signal peptide; codon-optimized in pPICZalphaA with alpha-factor signal, His-tagged, Pichia pastoris KM71H; theoretical 39 kDa with tag; active as monomer; not N-glycosylated
T1 sequence (A0A2U8LMQ1 1-325): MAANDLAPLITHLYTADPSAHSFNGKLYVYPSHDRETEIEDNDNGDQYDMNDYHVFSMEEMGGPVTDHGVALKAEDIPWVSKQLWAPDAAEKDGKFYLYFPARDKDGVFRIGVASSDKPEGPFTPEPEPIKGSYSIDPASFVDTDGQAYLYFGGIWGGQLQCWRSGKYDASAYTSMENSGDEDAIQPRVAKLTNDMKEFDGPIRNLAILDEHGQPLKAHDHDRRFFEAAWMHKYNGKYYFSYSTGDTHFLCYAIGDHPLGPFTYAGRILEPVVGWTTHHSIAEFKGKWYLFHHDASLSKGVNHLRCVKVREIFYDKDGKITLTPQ
The series is described as follows: residual pNPX hydrolysis, absorbance […] nm. Type of series: biochemical. Particulars: read-out: % residual activity at 100 mM.

Substrate in the series “purified protein”: O=[N+]([O-])c1ccc(O[C@@H]2OC[C@@H](O)[C@H](O)[C@H]2O)cc1
In words: purified protein. Type of series: biochemical, Rhizophlyctis rosea. As to conditions: McIlvaine buffer pH 7, 25 °C, 10 min.

`OC1OC[C@@H](O)[C@H](O)[C@H]1O` (stereo partly shown) [xylose]: at RrXyl43A, the remaining activity at 100000 µM was found to be 51%.

B1: RrXyl43A (Rhizophlyctis rosea) (protein)
chain: T1 sequence (A0A2U8LMQ1 1-325)
notes: full-length 325 residues, no native signal peptide; codon-optimized in pPICZalphaA with alpha-factor signal, His-tagged, Pichia pastoris KM71H; theoretical 39 kDa with tag; active as monomer; not N-glycosylated
For the molecule B1, in “purified protein”, the Km worked out at 1340 ± 170 µM, the Vmax stood at 34.6 µmol/min/mg and the kcat is 21.2 ± 0.89 s⁻¹.

For orientation: Km means the substrate concentration at which the rate is half of its maximum. By Vmax is commonly meant the top rate of the reaction or transport when substrate is in excess. The kcat is the number of substrate molecules converted per active site and unit of time at saturation.

Values taken from publication PMC6373445, “Identification and characterization of GH11 xylanase and GH43 xylosidase from the chytridiomycetous fungus, Rhizophlyctis rosea” (Applied Microbiology and Biotechnology, 2018).
